Values belong to the binder of their own block, whether it stands above or below them.
How the values were obtained:
[1] = target: T1, folate receptor alpha (FRα), human (human, UniProt P15328 25-234); experiment: sandwich ECLIA on serum, 26B3 as capture (Pair 2)
T1 construct: also called FR-alpha; FOLR-1
Procedure: (§1) FRα levels in the serum of patients with ovarian cancer, patients with lung cancer, and normal controls were assessed. Serum FRα levels were assessed using ECLIA with two different pairs of capture-detector antibodies: Pair 1, in which 9F3 was the capture antibody and 24F12 was the detector antibody, and Pair 2, in which 26B3 was the capture antibody and 19D4 was the detector antibody.
(§2) The FRα pairs were tested with full calibrator curves and 196 individual serums diluted 1:4. In one experiment, 26B3 was used as the capture antibody after CR processing on a plate lot (75 μg/mL, +B, +T) and 19D4 was used as the detector antibody at 1.0 μg/mL. In another experiment, 9F3 was used as the capture antibody and 24F12 was used as the detector antibody at 1.0 μg/mL. Each were CR processed (lot 10070) with an label to protein ratio (L/P) of 13.3. Diluent 100 (Meso Scale Discovery, Gaithersburg, Md.)+human anti-mouse antibody (HAMA)+mIgG was used for samples and calibrator. Diluent 3 (Meso Scale Discovery, Gaithersburg, Md.) was used for detections.
(§3) The following protocol was employed for the ECLIA. Samples were added at 50 μL/well. The samples were shaken for 2 hours and subsequently washed with Phosphate Buffered Saline (PBS) solution with the detergent Tween 20 (PBST). […] Finally, the electrochemiluminescence (ECL) emission of the samples was read with 2×MSD® Buffer T.

[2] = target: T1, folate receptor alpha (FRα), human; experiment: sandwich ECLIA on serum, 9F3 as capture (Pair 1)
Procedure: as §1, §2, §3

[3] = target: T1, folate receptor alpha (FRα), human; experiment: sandwich ECLIA on serum, 24F12 as detector (Pair 1)
Procedure: as §1, §2, §3

[4] = target: T1, folate receptor alpha (FRα), human; experiment: sandwich EIA, biotin-labeled detector MORAb-003, capture MOV18, row '1-S' (label not explained)
[5] = target: T1, folate receptor alpha (FRα), human; experiment: sandwich ECLIA on serum, 19D4 as detector (Pair 2)
Procedure: as §1, §2, §3

T1 sequence (P15328 25-234 limits assumed): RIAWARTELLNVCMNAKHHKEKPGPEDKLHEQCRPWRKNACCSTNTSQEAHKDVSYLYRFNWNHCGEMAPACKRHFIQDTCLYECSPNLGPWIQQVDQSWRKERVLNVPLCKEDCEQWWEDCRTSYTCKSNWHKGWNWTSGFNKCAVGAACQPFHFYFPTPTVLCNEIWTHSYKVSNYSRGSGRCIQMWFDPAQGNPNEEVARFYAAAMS

binding result [1]: binds
B1: 26B3.F2 antibody (antibody, mouse IgG1, V domains shown)
VH: GPELVKPGASVKISCKASDYSFTGYFMNWVMQSHGKSLEWIGRIFPYNGDTFYNQKFKGRATLTVDKSSSTAHMELRSLASEDSAVYFCARGTHYFDYWGQGTTLTVSS
VL: PASLSASVGETVTITCRTSENIFSYLAWYQQKQGISPQLLVYNAKTLAEGVPSRFSGSGSGTQFSLKINSLQPEDFGSYYCQHHYAFPWTFGGGSKLEIKR
notes: ATCC PTA-11885

binding result [2]: binds
B2: 9F3.H9.H3.H3.B5.G2 antibody (antibody, mouse IgG2a, V domains shown)
VH: ESGPGLVRPSQSLSLTCSVTGYSITSGYYWNWIRQFPGSRLEWMGYIKSDGSNNYNPSLKNRISITRDTSKNQFFLKLNSVTTEDTATYFCTREWKAMDYWGQGTSVTVSS
VL: PAIMSASPGEKVTMTCRASSTVSYSYLHWYQQKSGASPQLWIYGTSNLASGVPARFSGSGSGTSYSLTISSVEAEDAATYYCQQYSGYPLTFGAGTKLELKR
notes: ATCC PTA-11887

binding result [3]: binds
B3: 24F12.B1 antibody (antibody, mouse IgG1, V domains shown)
VH: SGGGLVRPGGSLKLSCAASGFTFSSYAMSWVRQSPEKRLEWVAEIGSGGSYTYYPDTVTGRFTISRDNAKSTLYLEMSSLRSEDTAIYYCARETTAGYFDYWGQGTTLTVSS
VL: TSSLSASLGDRVTISCSASQGINNFLNWYQQKPDGTVKLLIYYTSSLHSGVPSRFSGSGSGTDYSLTISNLEPEDIAIYYCQHFSKLPWTFGGGTKLEIKR
notes: ATCC PTA-11886

binding result [4]: binds
B4: MORAb-003 antibody (antibody, human IgG1, kappa, V domains shown)
VH: EVQLVESGGGVVQPGRSLRLSCSASGFTFSGYGLSWVRQAPGKGLEWVAMISSGGSYTYYADSVKGRFAISRDNAKNTLFLQMDSLRPEDTGVYFCARHGDDPAWFAYWGQGTPVTVSS
VL: DIQLTQSPSSLSASVGDRVTITCSVSSSISSNNLHWYQQKPGKAPKPWIYGTSNLASGVPSRFSGSGSGTDYTFTISSLQPEDIATYYCQQWSSYPYMYTFGQGTKVEIKR
notes: Used labeled with ruthenium chelate (ECLIA) or biotin (EIA) as detector, or unlabeled as capture antibody

binding result [5]: binds
B5: 19D4.B7 antibody (antibody, mouse IgG2a, V domains shown)
VH: GAELVKPGASVKLSCTASGFNIKHPYMHWVKQRPDQGLEWIGRIDPANGNTKYDPKFQGKATITADTSSNTAYLQLSSLTSEDTAVYYCGREEVADYTMDYWGQGTSVTVSS
VL: PASLAVSLGQRATISCRASESVDTYGNNFIHWYQQKPGQPPKLLIYLASNLESGVPARFSGSGSRTDFTLTIDPVEADDAATYYCQQNNGDPWTFGGGTKLEIKR
notes: ATCC PTA-11884
